“Also recorded” adds a separate entry of the source.
Columns and labels:
[1] = Rheological property detection (storage modulus of triggered gel); assay type: physicochemical; conditions: concentration of 2.5%; after contact with a metallic ion or change pH value
Procedure: (§1) Peptide solutions with different concentrations were prepared, and an appropriate amount of 10×PBS was added such that the final PBS concentration of the solution was 1×, after the solution was in contact with PBS to be triggered to be gel, the gel was taken out slowly with a spoon and placed onto a rheometer plate. A 40 mm plate was placed leaving the gap of about 450 µm, and kept at 37° C. for 5 minutes under a pressure of 1 pa, and frequency scanning was at 0.1 hz-10 hz. […] The highest concentration of the solution was set with the reference to the highest concentration at which a gel will not form immediately when the peptide was fully dissolved, according to which peptide solutions with a serial of diluted concentrations were prepared to perform storage modulus detections. For peptides represented by ① and ② in which the head and the tail are Pro, the storage modulus were able to reach 1000pa or higher after the PBS triggered the gelation, whereas before gelation, the solution can also maintain good fluidity.

[2] = Viscosity testing of peptide solution (rheometer); assay type: physicochemical; conditions: shear rate 10 1/s
Procedure: A peptide solution was prepared, a 50 mm plate was chosen for the rheometer, a 1 mm gap was set, and 2 ml of the peptide solution was taken, and placed in the gap under the plate. The shear rate was set as 10 1/s. Average values were recorded.

[3] = Fluidity / viscosity of peptide solutions on dissolution (observation); assay type: physicochemical; conditions: for viscosity during dissolution: with increasing concentration
Procedure: as §1

rabbit back skin wound = experiment: Rabbit hemostasis experiment on the back; assay type: in vivo, New Zealand rabbits
Procedure: Hemostatic procedures: a peptide aqueous solution ① with a concentration of 3% was prepared for rabbit hemostasis on the back. After injection of anesthesia via ear veins in New Zealand rabbits, a skin incision of about 1.5 cm was made on the back, and an incision depth was made until a blood vessel ruptured, and blood flowed out. After the blood flowed out was wiped off with a gauze, the peptide aqueous solution was sprayed onto a wound site immediately, and timing was conducted. In the hemostatic process, oozed blood was wiped constantly with a gauze, until no blood flowed out, and the timing was stopped, and after 1 minute, excess gel was removed, and the wound was observed whether the blood further oozed out.

liver wound = experiment: Rabbit liver hemostasis experiment; assay type: in vivo
Procedure: Hemostatic process: a peptide aqueous solution ① with a concentration of 3% was prepared, abdomen was opened after anesthesia of the rabbit, liver was exposed, and after the hepatic vessel was lacerated, the blood flowed out. After the blood flowed out was wiped off with a gauze, the peptide aqueous solution was sprayed onto the wound site immediately, and timing was conducted.

[4] = system: stomach mucosa (posterior submucosal layer); experiment: Rabbit stomach submucosal injection; assay type: in vivo, New Zealand rabbit; conditions: 0.5 ml injected, 25G needle, observed 30 min
Procedure: After a New Zealand rabbit was fastened for 24 hours, injection anesthesia was conducted from the ear vein, the abdomen was then opened, afterwards a stoma was made in the anterior wall of the stomach to expose a stomach mucosa, and 0.5 ml of normal saline was injected into a posterior submucosal layer using a 25G needle. After being observed for 30 min, the rabbit was sacrificed, a tissue was then taken out and fixed in formalin for 2 days, embedded by paraffin, sectioned, and finally stained with hematoxylin and eosin (FIG. 8A). 0.5 ml of a 10 mg/ml sodium hyaluronate solution (FIG. 8B) and 0.5 ml of a 3% peptides ① water solution (FIG. 8C) were injected by the same method.

[5] = system: colonic mucosa (submucosal layer); experiment: Colonic submucosal injection of rabbits; assay type: in vivo, New Zealand rabbit; conditions: 0.5 ml injected, 25G needle, observed 30 min; colon
Procedure: A New Zealand rabbit was fastened for 24 hours, injection of anesthesia was conducted via the ear vein, the abdomen was then opened, afterwards an open cutting was conducted along a midline of a colon to expose the colonic mucosa, 0.5 ml of normal saline was injected into the submucosal layer using a 25G needle. After observing for 30 min, the rabbit was sacrifice, a tissue was then taken out and fixed in formalin for 2 days, embedded by paraffin, sectioned, and finally stained with hematoxylin and eosin (FIG. 9B). 0.5 ml of a 10 mg/ml sodium hyaluronate solution (FIG. 9C) and 0.5 ml of a 3% peptide aqueous solution ① (FIG. 9D) were injected by the same method. An untreated normal tissue was used as a control (FIG. 9A).

[6] = 3% peptide aqueous solution sprayed onto liver wound

## AC-Arg-Ala-Asp-Ala-Arg-Ala-Asp-Ala-Arg-Ala-Asp-Ala-Arg-Ala-Asp-Ala- amide [compound ⑤]
[1]
  storage modulus: less than 700 pa
[2]; concentration 1%
  Viscosity: 955.17 mPa·s
[2]; concentration 1%, listed as AC-(RADA)4-amide
  Viscosity: high viscosity; also recorded: high viscosities
[2]; concentration 2%
  Viscosity: 1817.96 mPa·s
[2]; concentration 2.5%
  Viscosity: 2514.57 mPa·s
[3]; concentration of 2.5%
  fluidity of solution: almost lost fluidity
[3]
  viscosity during dissolution: increased with the increase of the concentrations

## AC-Arg-Val-Asp-Val-Arg-Val-Asp-Val-amide (Ac-RVDVRVDV-NH2) [comparison peptide without Pro in the viscosity test]
[2]; concentration 1%
  Viscosity: 658.25 mPa·s
[2]; concentration 1%, listed as AC-RVDVRVDV-amide
  Viscosity: high viscosities
[2]; concentration 2%
  Viscosity: 1546.21 mPa·s

## AC-Pro-Arg-Val-Asp-Val-Arg-Pro-Asp-Val-Arg-Val-Asp-Pro-amide (Ac-PRVDVRPDVRVDP-NH2) [compound ④]
[3]
  viscosity during dissolution: increased with the increase of the concentrations

## AC-Pro-Arg-Val-Asp-Val-Arg-Val-Asp-Pro-amide (Ac-PRVDVRVDP-NH2) [compound ①]
[2]; concentration 3%
  Viscosity: Under the detection limit
[2]; concentration 4%
  Viscosity: No viscosity numerical value was detected; also recorded: Under the detection limit
[3]; before gelation
  fluidity of solution: good fluidity
Rabbit back skin wound; 3% peptide aqueous solution sprayed onto back skin incision
  time until no blood flowed out: about 20 s
Rabbit back skin wound; 3% peptide aqueous solution sprayed onto back skin wound
  gel formation on the wound: formed immediately
Rabbit back skin wound; 3% peptide aqueous solution, back skin wound
  bleeding after hydrogel covering the surface was removed: no blood oozed out
Liver wound; [6]
  gel formation on contact with blood: formed immediately
  time until bleeding completely stopped: about 15 s
Liver wound; 3% peptide aqueous solution, liver wound
  hemostasis after excess hydrogel was removed: hemostasis still obtained
[4]
  submucosal cushion layer (hematoxylin and eosin staining): fine and tight, and not loose
[5]
  submucosal filling (hematoxylin and eosin staining): filled with the peptide gel

## AC-Pro-Arg-Val-Asp-Val-Arg-Val-Asp-Val-amide (Ac-PRVDVRVDV-NH2) [compound ③]
[3]
  viscosity during dissolution: increased with the increase of the concentrations

## AC-Pro-Lys-Val-Glu-Val-Lys-Val-Glu-Pro-amide (Ac-PKVEVKVEP-NH2) [compound ②]
[2]; concentration 3%
  Viscosity: Under the detection limit
[2]; concentration 4%
  Viscosity: No viscosity numerical value was detected; also recorded: Under the detection limit
[3]; before gelation
  fluidity of solution: good fluidity
